Drawing on paper PMC3686747, this text covers percent of total N-SMase activity recovered in the anti-Hsp60 immunoprecipitates and percent of N-SMase activity precipitated by anti-Hsp60 antibody for 1 substance.

For test [1], the target named is heat shock protein 60 (Hsp60), bovine brain (bovine (endogenous in bovine brain)) (UniProt P31081). As to the kind of experiment: co-IP; Mono S active fraction from bovine brain, anti-Hsp60 antibody; N-SMase activity recovered in the immunoprecipitates after resuspension in IP buffer (data not shown).
The target is the same in test [2]. As to the kind of experiment: co-IP; active N-SMase fraction (Mono S or Superose 12) from bovine brain, holding both proteins together; anti-Hsp60 or anti-N-SMase2 antibody on Protein A Sepharose, 4 h at 4°C; N-SMase activity of supernatants and immunoprecipitates, immunoblot; with indicated concentrations of Triton X-100 in one panel. Background: A western blot detects proteins with antibodies after separation by electrophoresis.

Chain of UniProt P31081 (P31081 27-573): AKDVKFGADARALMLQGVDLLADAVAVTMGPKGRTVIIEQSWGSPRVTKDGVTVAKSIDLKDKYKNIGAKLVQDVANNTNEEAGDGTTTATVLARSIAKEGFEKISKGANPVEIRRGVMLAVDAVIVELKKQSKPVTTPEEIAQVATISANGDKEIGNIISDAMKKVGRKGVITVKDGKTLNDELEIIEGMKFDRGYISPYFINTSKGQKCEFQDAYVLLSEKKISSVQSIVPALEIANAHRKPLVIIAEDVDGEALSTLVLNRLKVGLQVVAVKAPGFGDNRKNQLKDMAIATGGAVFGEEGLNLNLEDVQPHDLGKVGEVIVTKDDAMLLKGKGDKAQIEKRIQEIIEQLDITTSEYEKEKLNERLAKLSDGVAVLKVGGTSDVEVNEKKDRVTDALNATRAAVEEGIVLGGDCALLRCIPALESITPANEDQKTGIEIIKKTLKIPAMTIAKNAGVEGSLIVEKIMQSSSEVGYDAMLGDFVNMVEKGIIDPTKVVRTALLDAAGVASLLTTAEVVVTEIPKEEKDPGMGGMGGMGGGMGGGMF

For “neutral sphingomyelinase 2 (N-SMase2), bovine brain, purified as N-SMase ε (enzyme)”, in test [1], the percent of total N-SMase activity recovered in the anti-Hsp60 immunoprecipitates was 10%. Besides, in test [2], the percent of N-SMase activity precipitated by anti-Hsp60 antibody came out at 20%.
